Reference: patent US20010044102

System: c-Myc (pM21 expression), P01106-1
Test: cell_activity
Details: luciferase, NIH 3T3, SV40 minimal promoter

c-Myc (pM21 expression), P01106-1, sequence (P01106 16-454): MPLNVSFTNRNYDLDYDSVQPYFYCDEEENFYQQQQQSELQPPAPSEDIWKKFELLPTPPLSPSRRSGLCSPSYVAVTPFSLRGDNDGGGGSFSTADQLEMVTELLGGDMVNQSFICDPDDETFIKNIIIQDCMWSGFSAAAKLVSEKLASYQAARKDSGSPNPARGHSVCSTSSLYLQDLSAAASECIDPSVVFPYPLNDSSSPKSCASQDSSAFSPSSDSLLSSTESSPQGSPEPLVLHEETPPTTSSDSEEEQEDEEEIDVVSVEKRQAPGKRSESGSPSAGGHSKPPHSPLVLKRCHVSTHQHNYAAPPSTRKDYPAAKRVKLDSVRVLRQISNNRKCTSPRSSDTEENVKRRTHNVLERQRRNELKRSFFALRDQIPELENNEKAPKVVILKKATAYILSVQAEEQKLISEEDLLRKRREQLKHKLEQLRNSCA

With “cdc25A 2.5 kb KpnI/HindIII fragment (MB2+MB3) luciferase reporter” the activity was 5 fold.
